The values below come from patent US20260022160A1 (AFFYXELL THERAPEUTICS, published 2026).

Sequences and labels used below:
T1: human CD40L expressed on HEK293 cells (human, UniProt P29965 1-261)
T1 construct: whole, on cells; also called hCD40L-HEK293 cells; hCD40L-HEK-293 cells (Crown Biosciences, C2041)
T1 sequence (looked up): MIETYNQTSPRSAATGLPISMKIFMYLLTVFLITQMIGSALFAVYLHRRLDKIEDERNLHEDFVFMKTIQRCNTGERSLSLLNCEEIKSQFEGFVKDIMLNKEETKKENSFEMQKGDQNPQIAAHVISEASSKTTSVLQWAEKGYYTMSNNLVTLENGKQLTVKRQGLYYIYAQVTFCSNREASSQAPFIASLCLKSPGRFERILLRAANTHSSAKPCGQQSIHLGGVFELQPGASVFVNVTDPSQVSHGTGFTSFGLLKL

T2: human CD40L (human, UniProt P29965 113-261, limits assumed)
T2 construct: also called hCD40L; huCD40L
T2 sequence (looked up): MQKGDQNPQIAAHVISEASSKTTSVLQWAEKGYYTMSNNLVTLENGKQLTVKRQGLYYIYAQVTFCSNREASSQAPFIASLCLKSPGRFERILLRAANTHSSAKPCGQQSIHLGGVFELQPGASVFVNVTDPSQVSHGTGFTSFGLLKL

B1: stefin A protein variant clone 243 (designed binder)
chain: MIPGGLSEAKPATPEIQEIVDKVKPQLEEKTGETYGKLEAVQYKTQVVFTYQISYTVGTNYYIKVRAGDNKYMHLKVFKSLRWRYPARKPEDLVLTGYQVDKNKDDELTGF
B2: stefin A protein variant clone 248 (designed binder)
chain: MIPGGLSEAKPATPEIQEIVDKVKPQLEEKTGETYGKLEAVQYKTQVVYDELYHEKAGTNYYIKVRAGDNKYMHLKVFKSLEYKFRNLEEDLVLTGYQVDKNKDDELTGF
B3: stefin A protein variant clone 270 (designed binder)
chain: MIPGGLSEAKPATPEIQEIVDKVKPQLEEKTGETYGKLEAVQYKTQVVLDGLYHVNSGTNYYIKVRAGDNKYMHLKVFKSLFYYYRSEPTEDLVLTGYQVDKNKDDELTGF
B4: stefin A protein variant clone 261 (designed binder)
chain: MIPGGLSEAKPATPEIQEIVDKVKPQLEEKTGETYGKLEAVQYKTQVVVDQVWSENAGTNYYIKVRAGDNKYMHLKVFKSLPYLWRKHAVEDLVLTGYQVDKNKDDELTGF
B5: stefin A protein variant clone 229 (designed binder)
chain: MIPGGLSEAKPATPEIQEIVDKVKPQLEEKTGETYGKLEAVQYKTQVVQYKIITWWSGTNYYIKVRAGDNKYMHLKVFKSLVYKNKRGGHEDLVLTGYQVDKNKDDELTGF
B6: stefin A protein variant clone 231 (designed binder)
chain: MIPGGLSEAKPATPEIQEIVDKVKPQLEEKTGETYGKLEAVQYKTQVVYYQIITWWQGTNYYIKVRAGDNKYMHLKVFKSLGIRKKQQQREDLVLTGYQVDKNKDDELTGF
B7: stefin A protein variant clone 233 (designed binder)
chain: MIPGGLSEAKPATPEIQEIVDKVKPQLEEKTGETYGKLEAVQYKTQVVLQDQWPWRDGTNYYIKVRAGDNKYMHLKVFKSLTYGKKWYSWEDLVLTGYQVDKNKDDELTGF
B8: stefin A protein variant clone 227 (designed binder)
chain: MIPGGLSEAKPATPEIQEIVDKVKPQLEEKTGETYGKLEAVQYKTQVVHDVFYDQKAGTNYYIKVRAGDNKYMHLKVFKSLKWWYRIGNPEDLVLTGYQVDKNKDDELTGF
B9: stefin A protein variant clone 246 (designed binder)
chain: MIPGGLSEAKPATPEIQEIVDKVKPQLEEKTGETYGKLEAVQYKTQVVHIPALKVHAGTNYYIKVRAGDNKYMHLKVFKSLPYWYRHDQEEDLVLTGYQVDKNKDDELTGF
B10: stefin A protein variant clone 244 (designed binder)
chain: MIPGGLSEAKPATPEIQEIVDKVKPQLEEKTGETYGKLEAVQYKTQVVRENWYGEFAGTNYYIKVRAGDNKYMHLKVFKSLLYIYRHPNYEDLVLTGYQVDKNKDDELTGF

In the first experiment the target is T1, human CD40L expressed on HEK293 cells. The experiment is described as follows: flow cytometry, clone at 1 uM on hCD40L-HEK293 cells (hatched), HEK-293 negative cells as control (open), detection anti-Cystatin A + A488 anti-goat. The method, then:
The cells were resuspended in PBS and 200,000 cells per well were dispatched in a round bottom 96 well plate. Cells were washed with PBS. The stefin A protein variant and controls were diluted in staining buffer containing 1% BSA, 0.01% Sodium Azide (NaN3), 2 mM EDTA in DPBS in duplicate and added on cells for staining for approximately 60 min at 4±1° c. Cells were washed and the secondary anti-Cystatin A (R&D, AF1407) was diluted 0.2 mg/ml in staining buffer and added on cells for staining for approximately 45 min at 4±1° c. Cells were washed again and the detection antibody A488 anti-goat (ThermoFisher, A21467) was diluted 1:500 in staining buffer and added to the cells for staining (approximately 30 min at 4±1° C.). Finally, the cells were washed and live and dead cells were stained using L/D stain Zombie Yellow (Biolegend, 423103) diluted in staining buffer for 10 min at 4±1° C. Cells were washed again and fixation buffer (R&D) was added to each well for 10 min at 4±1° C. then PBS with EDTA (Lonza) was added prior reading the plate on the flow cytometer (Guava 12 HT, Millipore). Dead cells were excluded, and the fluorescent green channel (488 nm/525/30) was acquired. Results were analyzed using Incyte and data were plotted using GraphPad.
Regarding B1, the “% Positive” value is 98.3% and the MFI was found to be 4400 MFI.

As to B2, the “% Positive” value is 98.1% and the MFI stood at 9620 MFI.

In the case of B3, the “% Positive” value came to 98.4% and the MFI amounted to 8540 MFI.

Regarding B4, the “% Positive” value came out at 97.9% and the MFI came to 7050 MFI.

The next experiment concerns the target T2, human CD40L. Description: direct binding ELISA on plate-coated hCD40L (5 ug/ml), detection biotinylated anti-cystatin A antibody + polyHRP-streptavidin, OD 450-630 nm. As to the method:
Plates were washed 2 times with 150 μl of washing buffer (PBS, Tween 20 0.1%) with a plate washer and saturated with Casein 5% (Sigma) in PBS for 90 minutes at room temperature (25±1° C.). For binding, each DAW01 clone and rhCD40 Fc were added to the plate, starting from 1 μM, 1 in 3 and 300 nM, 1 in 3 respectively. Plates were washed 3 times as described previously. […] Then, cystatin A biotinylated polyclonal antibody (BAF1407) was diluted to a concentration of 0.05 μg/ml in dilution buffer (PBS, 1% casein, 0.01% Tween 20) and the plate was incubated for 90 minutes at room temperature (25±1° C.). PolyHRP-streptavidin was then diluted in dilution buffer and the plates were incubated for 90 minutes at room temperature (25±1° C.). The plates were then washed 3 times as described previously, and the substrate (TMB, Pierce Thermo-Scientific) was added to the plates for 10 minutes. The reaction was stopped using an acidic solution, and plates were read at 450-630 nm.
Background: An ELISA detects its analyte on a solid surface through an enzyme-linked reagent.
Usually EC50 stands for the concentration giving half of the maximal effect. Consider B5, for which the EC50 was 15.3 nM.

In the case of B6, the EC50 worked out at 6.12 nM.

B1: the EC50 came to 57.5 nM.

For the molecule B7, the EC50 was determined as 3.07 nM.

Regarding B8, the EC50 came to 12.4 nM.

Take B9: the EC50 was 17.3 nM.

For B10, the EC50 was determined as 45.6 nM.

B4: the EC50 turned out to be 26.4 nM.
